Measurements as given in paper PMC4511006, “Peptide Inhibitor of Complement C1 (PIC1) Rapidly Inhibits Complement Activation after Intravascular Injection in Rats” (PLoS ONE, 2015).
Ends that are not written are not given here.

What was measured:
Details in all cases: both partners purified
C1q [1] = biological target: T1, C1q (UniProt P02745 23-245; P02746 28-253; P02747 29-245); experiment: ELISA; AcPA adsorbed to the plate at 2.5 uM; purified C1q (1 ug) added in 50 mM HEPES pH 7.0 with various concentrations of NaCl, 1 h, room temperature; detected with goat anti-C1q
T1 construct: also called purified C1q; intact C1q
T1 sequence (P02745 23-245, chain 1 of 3): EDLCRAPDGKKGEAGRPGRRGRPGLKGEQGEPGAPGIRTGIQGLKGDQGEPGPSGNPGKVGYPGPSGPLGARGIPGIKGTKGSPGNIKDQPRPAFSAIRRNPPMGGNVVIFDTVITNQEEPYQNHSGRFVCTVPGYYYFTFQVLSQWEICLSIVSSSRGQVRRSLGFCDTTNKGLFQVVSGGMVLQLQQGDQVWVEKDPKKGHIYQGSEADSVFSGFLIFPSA
T1 sequence (P02746 28-253, chain 2 of 3): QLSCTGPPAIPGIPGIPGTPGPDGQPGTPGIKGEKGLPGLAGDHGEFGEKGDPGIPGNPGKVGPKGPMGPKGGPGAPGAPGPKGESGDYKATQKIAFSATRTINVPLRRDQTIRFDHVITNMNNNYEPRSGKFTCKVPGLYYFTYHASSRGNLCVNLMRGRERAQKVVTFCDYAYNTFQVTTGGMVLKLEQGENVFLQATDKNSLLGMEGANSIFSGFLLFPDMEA
T1 sequence (P02747 29-245, chain 3 of 3): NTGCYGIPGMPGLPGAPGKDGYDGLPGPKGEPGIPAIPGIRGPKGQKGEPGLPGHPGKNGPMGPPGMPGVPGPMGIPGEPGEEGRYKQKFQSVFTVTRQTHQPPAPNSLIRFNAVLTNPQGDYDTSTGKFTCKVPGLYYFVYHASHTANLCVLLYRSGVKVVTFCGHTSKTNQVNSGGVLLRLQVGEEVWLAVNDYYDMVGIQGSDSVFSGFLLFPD

[2] = biological target: Wild-type recombinant ficolin H (ficolin-3) (human, UniProt O75636 24-299); experiment: ELISA; ficolins adsorbed at 10 ug/mL, C1q at 25 nM, BSA at 30 ug/mL; biotinylated PA added at various concentrations in blocking buffer with 0.4 M NaCl, 1 h, room temperature; neutravidin-HRP
Chain of Wild-type recombinant ficolin H (ficolin-3) (O75636 24-299): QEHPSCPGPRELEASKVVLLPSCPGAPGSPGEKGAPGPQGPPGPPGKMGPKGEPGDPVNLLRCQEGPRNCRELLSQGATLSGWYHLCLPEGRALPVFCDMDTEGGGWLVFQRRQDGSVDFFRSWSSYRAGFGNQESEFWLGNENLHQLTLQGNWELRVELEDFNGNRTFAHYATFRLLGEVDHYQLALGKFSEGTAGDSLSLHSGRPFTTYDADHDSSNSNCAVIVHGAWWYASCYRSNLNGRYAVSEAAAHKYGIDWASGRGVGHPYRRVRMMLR

[3] = biological target: Wild-type recombinant ficolin M (ficolin-1) (human, UniProt O00602 30-326); experiment: as above
Chain of Wild-type recombinant ficolin M (ficolin-1) (O00602 30-326): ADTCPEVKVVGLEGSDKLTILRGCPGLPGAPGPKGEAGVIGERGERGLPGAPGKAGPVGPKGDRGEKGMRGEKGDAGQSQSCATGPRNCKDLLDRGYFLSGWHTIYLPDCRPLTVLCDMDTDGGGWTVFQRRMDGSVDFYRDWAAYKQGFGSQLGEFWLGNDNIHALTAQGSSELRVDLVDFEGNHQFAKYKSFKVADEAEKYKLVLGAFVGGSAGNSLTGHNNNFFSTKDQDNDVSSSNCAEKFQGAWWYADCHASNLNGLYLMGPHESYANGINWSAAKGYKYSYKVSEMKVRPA

[4] = biological target: Wild-type recombinant ficolin L (ficolin-2) (human, UniProt Q15485 26-313); experiment: as above
Chain of Wild-type recombinant ficolin L (ficolin-2) (Q15485 26-313): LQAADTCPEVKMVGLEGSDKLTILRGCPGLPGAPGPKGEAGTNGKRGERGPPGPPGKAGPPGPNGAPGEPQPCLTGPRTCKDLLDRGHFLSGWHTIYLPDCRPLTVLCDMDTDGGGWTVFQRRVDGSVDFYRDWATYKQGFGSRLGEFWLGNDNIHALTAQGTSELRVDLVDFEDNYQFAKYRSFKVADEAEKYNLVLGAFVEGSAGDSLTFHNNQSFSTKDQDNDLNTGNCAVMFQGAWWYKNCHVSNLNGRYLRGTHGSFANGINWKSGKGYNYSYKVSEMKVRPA

C1q [5] = biological target: T1, C1q; experiment: cross-linking; C1q and biotinylated PA at a ratio of 1:25 in 0.1 M Na2HPO4, 0.15 M NaCl, pH 8.0, room temperature 2.5 h, with or without 20 uM BS3; SDS-PAGE and blot with streptavidin and anti-C1q

| Binder | binding result (C1q [1]) | binding result [2] | binding result [3] | binding result [4] | binding result (C1q [5]) |
| --- | --- | --- | --- | --- | --- |
| IALILEPICCQERAA (cysteine pairing not given here; also: acetylated, position not given here, Polar Assortant (PA), 15 amino-acid derivative obtained by extensive modification of a 15-residue peptide of the human astrovirus type 1 coat protein; also called acetylated Polar Assortant peptide; PIC1; source: synthetic peptide, bought: New England Peptide (>=90% purity)) [Acetylated PA (AcPA)] | binds |  |  |  |  |
| IALILEPICCQERAA-biotin (cysteine pairing not given here, Polar Assortant (PA), 15 amino-acid derivative of a human astrovirus type 1 coat protein peptide; Detected by its biotin (streptavidin IR 680 or neutravidin-HRP); source: synthetic peptide, bought: New England Peptide (>=90% purity)) [C-terminally biotinylated PA peptide] |  | binds | binds | binds | binds |
